Laboratory results taken from publication PMC4481513, “Structural and Functional Analysis of Human HtrA3 Protease and Its Subdomains” (PLoS ONE, 2015).
Blank lines part the entries; values can stand above or below the molecule they belong to. *1 amine or outer side, *2 acyl side, *3 side chain or, on linkers, in order; H or OH if unused. The star is where a group is joined. Benzoyl(5-NH,2-NO2) = O=C(c1cc(N[*:1])ccc1[N+](=O)[O-])[*:2]; Mca = COc1ccc2c(CC(=O)*)cc(=O)oc2c1

Legend:
[1] = target: β-casein from bovine milk (bovine); assay: SEC; Superose 12 HR 10/30, room temperature, 50 mM Na2HPO4/NaH2PO4 pH 8.0, 250 mM NaCl; single proteins, HtrA3 proteins at 3 mg/ml, 50 μl loaded
[2] = target: ΔN-HtrA3 (residues 130–453–His6), proteolytically active (human) (UniProt P83110)
[3] = target: ΔN-HtrA3-ΔPDZ (residues His6–122–349), proteolytically active (human) (UniProt P83110)
[4] = target: ΔN-HtrA3S (residues 130–357–His6), proteolytically active (human) (UniProt P83110)
[5] = target: the molecule itself; assay: crystal structure; ΔN-HtrA3 S305A, sitting-drop vapor diffusion, 1 M sodium/potassium phosphate buffer pH 5.0, 16°C; three molecules per asymmetric unit; 3.27 Å

Sequence of ΔN-HtrA3-ΔPDZ (residues His6–122–349), proteolytically active (human) (P83110 122-349, stated change not applied): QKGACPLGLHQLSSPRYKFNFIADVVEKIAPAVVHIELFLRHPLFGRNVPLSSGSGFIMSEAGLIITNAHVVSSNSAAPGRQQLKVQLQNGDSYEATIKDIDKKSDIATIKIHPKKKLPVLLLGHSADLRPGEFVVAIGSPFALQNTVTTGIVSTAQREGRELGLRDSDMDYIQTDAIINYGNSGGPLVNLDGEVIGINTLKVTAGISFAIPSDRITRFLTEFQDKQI

stoichiometry N [1]: 3
Molecule: β-casein from bovine milk (natural protein)

Km [μM] of cleavage of the peptide Ala(Mca)IRRVSYSF-ANB-NH2 (0.02 to 6 μM), 50 nM enzyme, 30°C, Michaelis-Menten fit [2]: 0.958 µM | Km [μM] of cleavage of the peptide Ala(Mca)IRRVSYSF-ANB-NH2 (0.02 to 6 μM), 50 nM enzyme, 30°C, Michaelis-Menten fit [3]: 0.878 µM | Km [μM] of cleavage of the peptide Ala(Mca)IRRVSYSF-ANB-NH2 (0.02 to 6 μM), 50 nM enzyme, 30°C, Michaelis-Menten fit [4]: 0.74 µM
B1: Fluorescent substrate Ala(Mca)IRRVSYSF–ANB–NH2 (peptide)
peptide: Mca-AIRRVSYSF-{Benzoyl(5-NH,2-NO2)-NH2}
SMILES: CC[C@H](C)[C@H](NC(=O)[C@H](C)NC(=O)Cc1cc(=O)oc2cc(OC)ccc12)C(=O)N[C@@H](CCCNC(=N)N)C(=O)N[C@@H](CCCNC(=N)N)C(=O)N[C@H](C(=O)N[C@@H](CO)C(=O)N[C@@H](Cc1ccc(O)cc1)C(=O)N[C@@H](CO)C(=O)N[C@@H](Cc1ccccc1)C(=O)Nc1ccc([N+](=O)[O-])c(C(N)=O)c1)C(C)C

B2: ΔN-HtrA3_(S305A) (residues 130–453–His6), proteolytically inactive N-terminally truncated HtrA3L with protease and PDZ domains (domain or fragment, human, UniProt P83110 130-453, looked up)
chain: LHQLSSPRYKFNFIADVVEKIAPAVVHIELFLRHPLFGRNVPLSSGSGFIMSEAGLIITNAHVVSSNSAAPGRQQLKVQLQNGDSYEATIKDIDKKSDIATIKIHPKKKLPVLLLGHSADLRPGEFVVAIGSPFALQNTVTTGIVSTAQREGRELGLRDSDMDYIQTDAIINYGNAGGPLVNLDGEVIGINTLKVTAGISFAIPSDRITRFLTEFQDKQIKDWKKRFIGIRMRTITPSLVDELKASNPDFPEVSSGIYVQEVAPNSPSQRGGIQDGDIIVKVNGRPLVDSSELQEAVLTESPLLLEVRRGNDDLLFSIAPEVVM
notes: human HtrA3 long isoform (HtrA3L), residues 130-453: serine protease domain and PDZ domain, catalytic serine changed to alanine; Chain A of the structure runs to residue 459, that is into the His tag; also called ΔN-HtrA3-His6; pPG1; source: E. coli BL21(DE3) clpP::Cm r, purified (Ni-NTA; before crystallization also Superdex 200 gel filtration); not shown: His6, C-terminal, kept
stoichiometry N [5]: 3
